This is an account of results in patent publication US8299210 (Sanofi, dated 2012).

Where no end group is shown, it is not given here. The star is where a group is joined. Biotin = O=C1N[C@H]2[C@H](CS[C@H]2CCCCC(=O)*)N1; AEEA = NCCOCCOCC(=O)O

Assay [1] addresses T1, Pertussis toxin (PT) (Bordetella pertussis, UniProt P04977 35-269; P04978 28-226; P04979 29-227; P0A3R5 43-152; P04981 35-133).
T1 construct: mature; also called purified PT; biotinylated PT
The experiment in a line: 35S-labelled, His-tag purified free peptide (TNT expressed) on biotinylated PT on streptavidin magnetic beads, scintillation counting (test 1).
Protocol: (§1) By this measure, those bated with biotinylated PT immobilized on streptavidin-magnetic beads for 1 h at RT. The beads were washed 3× with HBS-buffer and then resuspended in water and analyzed by liquid scintillation counting. In control experiments each candidate was incubated with streptavidin beads only (without PT).

The target in assay [2] is T1, Pertussis toxin (PT). The description is as above. The source holds these as a separate data set.
Protocol: as §1
Assay [3] has as its target T1, Pertussis toxin (PT). Briefly: 20 pmol sepharose-immobilized peptide with 100 pmol (500 nM) PT, bound PT quantified by gel, 1:1 ratio assumed.
In assay [4] the target is T1, Pertussis toxin (PT). The experiment in a line: ~200 pmol peptide on streptavidin sepharose with 100 pmol purified PT, gel and silver staining.
In assay [5] the target is T1, Pertussis toxin (PT). The experiment in a line: BIAcore 2000, 2.5-100 nM peptide over PT amine coupled to a CM5 chip (6000 RU), HBS/EP, room temperature. A general note: Surface plasmon resonance follows binding to a sensor surface in real time, without labels.

As for MGRGSHHHHHHARSWRDTRKLHMRHYFPLAIDSYWDHTLRDANAPKASAI [PP26 variant # 15 (seq # 198000)], the binding result with Pertussis toxin (PT) [1] is “binds”.

B1: gurmarin variant # 11 (seq # 194328) (peptide)
chain: MHHHHHHSGSSSGSGCVKKDELCNWVTPMRCEPLECLGHGLGYAYCGSGSSGSS
Turning to B1, the binding result with Pertussis toxin (PT) [2] is on record as “binds”.

B2: gurmarin variant # 9 (seq # 194259) (peptide)
chain: MHHHHHHSGSSSGSGCVKKDELCARWDLVCCEPLECIYTSELYATCGSGSSGSS
For B2, the binding result with Pertussis toxin (PT) [2] is on record as “binds”.

B3: gurmarin variant # 16 (seq # 194533) (peptide)
chain: MHHHHHHSGSSSGSGCVKKDELCARWDLVCCEPLECIYTSELYATCGSGSSGSS
As for B3, in the assay with Pertussis toxin (PT) [2], the binding result was “binds”.

B4: gurmarin variant # 10 (seq # 194264) (peptide)
chain: MHHHHHHSGSSSGSGCVKKDELCELAVDECCEPLECFQMGHGFKRCGSGSSGSS
B4: the binding result with Pertussis toxin (PT) [2] is recorded as “binds”.

MGRGSHHHHHHARSSHCRHRNCHTITRGNMRIETPNNIRKDANAPKASAI [PP26 variant # 5 (seq # 197557)]: the binding result with Pertussis toxin (PT) [1] is given as “binds”. With MGRGSHHHHHHARSWQPEVKMSSLVDTSQTVGAAVETRTTDANAPKASA [PP26 variant # 14 (seq # 197825)], the binding result with Pertussis toxin (PT) [1] is listed as “binds”.

B5: synthetic biotinylated peptide gurmarin 15 n (Seq # 194511-1) (peptide)
peptide: {Biotin-AEEA}-SGCVKKDELCSQSVPMCCEPLECKWFNENYGICGS
modifications: ends and bridges not checked
notes: also called gurm 15n; gurmarin peptide 15
Turning to B5, the “Fraction of binding active peptide” value with Pertussis toxin (PT) [3] is over 50%. As to {Biotin-AEEA}-SGCVKKDELCARWDLVCCEPLECIYTSELYATCG (cysteine pairing not given here, also called gurm 9n; gurmarin peptide 9) [synthetic biotinylated peptide gurmarin 9 n (Seq # 194259-1)], the “Fraction of binding active peptide” value with Pertussis toxin (PT) [3] is over 12.5%.

B6: gurmarin variant # 14 (seq # 194479) (peptide)
chain: MHHHHHHSGSSSGSGCVKKDELCTTASKSCCEPLECKWTNEHFGTCGSGSSGSS
As to B6, the binding result with Pertussis toxin (PT) [2] was “binds”. For the molecule MGRGSHHHHHHARSTMNTNRMDIQRLMTNHVKRDSSPGSIDANAPKASAI [PP26 variant # 6 (seq # 197596)], in the assay with Pertussis toxin (PT) [1], the binding result was “binds”.

B7: gurmarin variant # 12 (seq # 194297) (peptide)
chain: MHHHHHHSGSSSGSGCVKKDELCVFYFPNCCEPLECRWVNDNYGWCGSGSSGSS
Consider B7, for which the binding result in the assay with Pertussis toxin (PT) [2] is “binds”.

Turning to {Biotin-AEEA}-SGCVKKDELCELAIDECCEPLECTKGDLGFRKCG (ends and bridges not checked, also called gurm 19n) [synthetic biotinylated peptide gurmarin 19 n (Seq # 194737-1)], the “Fraction of binding active peptide” value with Pertussis toxin (PT) [3] is over 5%.

With RSSHCRHRNCHTITRGNMRIETPNNIRKDAK(Biotin) (cysteine pairing not given here) [synthetic biotinylated peptide pp26 5 c (Seq # 197557-1)], the binding result in the assay with Pertussis toxin (PT) [4] was “binds”.

With {Biotin-AEEA}-RSSHCRHRNCHTITRGNMRIETPNNIRKDA (cysteine pairing not given here) [synthetic biotinylated peptide pp26 5 n (Seq # 197557-2)], the “Fraction of binding active peptide” value with Pertussis toxin (PT) [3] is over 5%.

B8: synthetic biotinylated peptide pp26 15 n (Seq # 198000-1) (peptide)
peptide: {Biotin-AEEA}-RSWRDTRKLHMRHYFPLAIDSYWDHTLRDA
notes: also called pp26 peptide 15; pp26 clone 15
For B8, the “Fraction of binding active peptide” value with Pertussis toxin (PT) [3] was over 12.5%.

B9: synthetic biotinylated peptide pp26 9 n (Seq # 197588-1) (peptide)
peptide: {Biotin-AEEA}-RSNVIPLNEVWYDTGWDRPHRSRLSIDDDA
notes: also called pp26 peptide 9; pp26 clone 9
On to B9, for which, in the assay with Pertussis toxin (PT) [5], the affinity, expressed as Kd, was 7.5 nM; the koff (commonly the first-order rate constant of dissociation) turned out to be 0.001 s⁻¹; the on-rate constant (kon) – broadly, the rate constant with which the complex forms – was 130000 M⁻¹ s⁻¹. Besides, in the assay with Pertussis toxin (PT) [3], the “Fraction of binding active peptide” value was over 50%.

B10: gurmarin variant # 15 (seq # 194511) (peptide)
chain: MHHHHHHSGSSSGSGCVKKDELCSQSVPMCCEPLECKWFNENYGICGSGSSGSS
Turning to B10, the binding result with Pertussis toxin (PT) [2] is reported as “binds”.

In the case of {Biotin-AEEA}-SGCVKKDELCELAVDECCEPLECFQMGHGFKRCG (ends and bridges not checked, also called gurm 10n) [synthetic biotinylated peptide gurmarin 10 n (Seq # 194264-1)], the “Fraction of binding active peptide” value with Pertussis toxin (PT) [3] is over 5%.
